One test concerns the target full-length (FL) NS5 protein (wt PBM) of West Nile virus (West Nile virus). The test is described as follows: split reporter (BiFC, NanoBiT); N2H split-NanoLuc in HEK-293T cells; full-length NS5 with 91 full-length human PDZ proteins (ORFs); read-out NLR; hits NLR > 1.35.
Microtubule-associated serine/threonine-protein kinase 2, PDZ domain (N2H construct), sequence (Q6P0Q8 1104-1192): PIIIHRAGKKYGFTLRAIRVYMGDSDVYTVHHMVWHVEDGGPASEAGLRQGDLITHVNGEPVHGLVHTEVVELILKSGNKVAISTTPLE
Protein scribble homolog, PDZ domain 4 (N2H construct), sequence (Q14160 1100-1194): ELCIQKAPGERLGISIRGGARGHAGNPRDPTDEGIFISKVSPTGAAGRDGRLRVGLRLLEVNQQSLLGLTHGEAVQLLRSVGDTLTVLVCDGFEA
FERM and PDZ domain-containing protein 4, PDZ domain (N2H construct), sequence (Q14CM0 78-155): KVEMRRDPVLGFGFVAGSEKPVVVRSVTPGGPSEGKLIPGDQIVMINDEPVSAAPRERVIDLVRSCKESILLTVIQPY
Connector enhancer of kinase suppressor of ras 3, full-length protein (ORF, N2H construct), sequence (Q6P9H4 whole entry): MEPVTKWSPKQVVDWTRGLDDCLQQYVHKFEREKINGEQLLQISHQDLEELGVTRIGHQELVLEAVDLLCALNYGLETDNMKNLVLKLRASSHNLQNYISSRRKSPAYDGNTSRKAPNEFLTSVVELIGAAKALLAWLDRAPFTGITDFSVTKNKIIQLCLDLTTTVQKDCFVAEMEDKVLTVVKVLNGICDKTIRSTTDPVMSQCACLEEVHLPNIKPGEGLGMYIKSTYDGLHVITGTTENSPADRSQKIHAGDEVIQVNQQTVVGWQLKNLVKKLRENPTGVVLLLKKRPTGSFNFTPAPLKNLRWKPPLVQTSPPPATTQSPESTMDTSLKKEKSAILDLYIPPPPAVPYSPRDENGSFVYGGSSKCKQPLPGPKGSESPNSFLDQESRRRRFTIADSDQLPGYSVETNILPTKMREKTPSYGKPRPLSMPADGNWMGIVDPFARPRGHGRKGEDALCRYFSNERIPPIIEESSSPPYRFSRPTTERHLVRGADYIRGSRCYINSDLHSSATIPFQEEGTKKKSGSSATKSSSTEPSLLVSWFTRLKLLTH
Microtubule-associated serine/threonine-protein kinase 1, PDZ domain (N2H construct), sequence (Q9Y2H9 967-1055): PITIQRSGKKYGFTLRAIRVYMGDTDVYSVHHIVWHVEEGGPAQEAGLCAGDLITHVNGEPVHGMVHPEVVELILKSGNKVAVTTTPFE
Connector enhancer of kinase suppressor of ras 3, PDZ domain (N2H construct), sequence (Q6P9H4 211-293): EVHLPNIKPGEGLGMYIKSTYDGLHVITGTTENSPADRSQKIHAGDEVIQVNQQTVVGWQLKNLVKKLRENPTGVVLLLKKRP
Serine protease HTRA1, PDZ domain (N2H construct), sequence (Q92743 365-467): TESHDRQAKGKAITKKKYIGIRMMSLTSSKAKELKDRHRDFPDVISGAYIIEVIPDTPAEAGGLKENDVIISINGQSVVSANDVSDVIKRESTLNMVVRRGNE
Partitioning defective 3 homolog, PDZ domain 1 (N2H construct), sequence (Q8TEW0 271-359): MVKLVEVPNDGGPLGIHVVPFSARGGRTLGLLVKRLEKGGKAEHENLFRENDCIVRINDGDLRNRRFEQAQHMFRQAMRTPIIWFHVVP
Protein scribble homolog, PDZ domain 1 (N2H construct), sequence (Q14160 728-815): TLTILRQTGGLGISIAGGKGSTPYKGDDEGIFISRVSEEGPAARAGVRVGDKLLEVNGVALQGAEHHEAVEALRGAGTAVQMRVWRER
For the substance “Rho GTPase-activating protein 21, full-length protein (ORF, N2H construct) (from UniProt Q5T5U3 1-1958) (natural protein)”, the NLR is 4.41.

For the next test the target is unchanged. Described as above. The source holds these as a separate data set.
With “Rho GTPase-activating protein 21, full-length protein (ORF, N2H construct) (from UniProt Q5T5U3 1-1958) (natural protein)”, the NLR came to 4.4.

Regarding “SH3 and multiple ankyrin repeat domains protein 2, full-length protein (ORF, N2H construct) (from UniProt Q9UPX8 1-1849) (natural protein)”, the NLR turned out to be 4.38.

Turning to “Connector enhancer of kinase suppressor of ras 3, full-length protein (ORF, N2H construct) (from UniProt Q6P9H4 1-555) (natural protein)”, the NLR is 1.91.

The next test has the same target. The test is described as follows: split reporter (BiFC, NanoBiT); N2H split-NanoLuc in HEK-293T cells; full-length NS5 with 257 single PDZ domains; read-out NLR with NS5 minus NLR with NS5ΔPBM, three experiments; hits > 0.25.
On to “Protein scribble homolog, PDZ domain 4 (N2H construct) (from UniProt Q14160 1100-1194) (domain or fragment)”, for which the NLR(NS5) - NLR(NS5ΔPBM) is 0.56. On the same count and under the same terms, the same measure for “Protein scribble homolog, PDZ domain 1 (N2H construct) (from UniProt Q14160 728-815) (domain or fragment)”: 0.76. In the case of “Partitioning defective 3 homolog, PDZ domain 1 (N2H construct) (from UniProt Q8TEW0 271-359) (domain or fragment)”, the NLR(NS5) - NLR(NS5ΔPBM) worked out at 1.24. Still for that read-out and setting: with “Golgi reassembly-stacking protein 2, PDZ domain (N2H construct) (domain or fragment)” the figure was 1.32; with “Microtubule-associated serine/threonine-protein kinase 2, PDZ domain (N2H construct) (from UniProt Q6P0Q8 1104-1192) (domain or fragment)”, 0.87; with “Connector enhancer of kinase suppressor of ras 3, PDZ domain (N2H construct) (from UniProt Q6P9H4 211-293) (domain or fragment)”, 6.27. Still for that read-out and setting: with “Microtubule-associated serine/threonine-protein kinase 1, PDZ domain (N2H construct) (from UniProt Q9Y2H9 967-1055) (domain or fragment)” the figure was below 0.25; with “FERM and PDZ domain-containing protein 4, PDZ domain (N2H construct) (from UniProt Q14CM0 78-155) (domain or fragment)”, below 0.25; with “Serine protease HTRA1, PDZ domain (N2H construct) (from UniProt Q92743 365-467) (domain or fragment)”, below 0.25.

Another test deals with biotinylated WNV NS5 PBM peptide (West Nile virus). The test is described as follows: holdup assay (automated high-throughput chromatography); biotinylated NS5 PBM peptide as bait against 259 human PDZ domains expressed in E. coli; read-out binding intensity (BI), mean of replicates; BI threshold 0.2 for a significant interaction.
On to “Golgi reassembly-stacking protein 2, PDZ domain (holdup construct) (domain or fragment)”, for which the BI (holdup binding intensity) is below 0.15.

The values are drawn from article PMC7865074.
